Assay results reported in article PMC8106883.

Biological target: angiotensin-converting enzyme 2 (ACE2) on transfected HEK293T cells (human) (UniProt Q9BYF1)

## S1-hFc N282Q (Fc fusion)
  fold binding relative to WT S1-Fc: 3 fold
